Read-outs that look alike come from different tables or passages of the source.

In assay [1] the target is Transthyretin, wild type, first purification protocol (TTR1st) (human (by the printed accession P02766)) (UniProt P02766). Put plainly: SEC. (In general: Size exclusion chromatography separates by hydrodynamic size, large species first.)
Assay [2] shares this target. The experiment in a line: SEC. The source holds these as a separate data set.

Usually stoichiometry N stands for a count of units in the complex or per binding partner. In assay [1], “Transthyretin, wild type, first purification protocol (TTR1st) (from UniProt P02766 21-147) (enzyme)” showed a percent of the sample as oligomers (oTTR) of 7%, a percent of the sample as tetramer of 93% and a stoichiometry N of 4. For the same substance, the percent of the sample as oligomers (oTTR) in assay [2] is 4%.

These data come from article doi:10.1101/2023.08.10.552896.
